Measurements published in article PMC8140096, “Structural basis of substrate recognition and thermal protection by a small heat shock protein” (Nature Communications, 2021).

B1: Arabidopsis thaliana plastid small heat shock protein Hsp21 (44-227), N-terminal hexahistidine tag (natural protein)
chain: not shown
notes: Hsp21, Arabidopsis thaliana, UniProt P31170, residues 44-227, without the transit peptide; Alone it is a dodecamer (twelve identical subunits, tetrahedral); In the complex with DXPS it is a single monomer; also called His-Hsp21; Hsp21 dodecamer; source: E. coli BL21 Rosetta 2 (DE3), co-expressed with DXPS-His-FLAG at 37 °C, complex purified (HisTrap, anti-FLAG M2); E. coli BL21 Rosetta (DE3), …
B2: Arabidopsis thaliana 1-deoxy-D-xylulose 5-phosphate synthase (59-717), C-terminal hexahistidine-FLAG tandem tag (enzyme, UniProt Q38854 59-717, looked up)
chain: ASLAEKGEYYSNRPPTPLLDTINYPIHMKNLSVKELKQLSDELRSDVIFNVSKTGGHLGSSLGVVELTVALHYIFNTPQDKILWDVGHQSYPHKILTGRRGKMPTMRQTNGLSGFTKRGESEHDCFGTGHSSTTISAGLGMAVGRDLKGKNNNVVAVIGDGAMTAGQAYEAMNNAGYLDSDMIVILNDNKQVSLPTATLDGPSPPVGALSSALSRLQSNPALRELREVAKGMTKQIGGPMHQLAAKVDEYARGMISGTGSSLFEELGLYYIGPVDGHNIDDLVAILKEVKSTRTTGPVLIHVVTEKGRGYPYAERADDKYHGVVKFDPATGRQFKTTNKTQSYTTYFAEALVAEAEVDKDVVAIHAAMGGGTGLNLFQRRFPTRCFDVGIAEQHAVTFAAGLACEGLKPFCAIYSSFMQRAYDQVVHDVDLQKLPVRFAMDRAGLVGADGPTHCGAFDVTFMACLPNMIVMAPSDEADLFNMVATAVAIDDRPSCFRYPRGNGIGVALPPGNKGVPIEIGKGRILKEGERVALLGYGSAVQSCLGAAVMLEERGLNVTVADARFCKPLDRALIRSLAKSHEVLITVEEGSIGGFGSHVVQFLALDGLLDGKLKWRPMVLPDRYIDHGAPADQLAEAGLMPSHIAATALNLIGAPREALF
notes: 1-deoxy-D-xylulose 5-phosphate synthase (DXPS), Arabidopsis thaliana, UniProt Q38854, residues 59-717, without the transit peptide; also called DXPS; DXPS-His-FLAG; source: E. coli BL21 Rosetta 2 (DE3), co-expressed with His-Hsp21 at 37 °C, purified (HisTrap, anti-FLAG M2); not shown: His6, C-terminal, kept; FLAG, C-terminal, kept

Assays:
[1] = molecular target: B2; test: cryo-EM structure; His-Hsp21 and DXPS-His-FLAG co-expressed in E. coli at 37 °C, purified together (HisTrap, anti-FLAG), 0.7 mg/mL; 3D classification gave free DXPS (4.0 Å) and Hsp21-DXPS (3.7 Å); settings: both partners purified
[2] = molecular target: the molecule itself; test: cryo-EM structure; purified Hsp21 without substrate, 1 mg/mL; tetrahedral symmetry imposed, 4.6 Å
[3] = molecular target: the molecule itself; test: cryo-EM structure; His-Hsp21 and DXPS-His-FLAG co-expressed in E. coli at 37 °C, purified together (HisTrap, anti-FLAG), 0.7 mg/mL; 3D classification gave free DXPS (4.0 Å) and Hsp21-DXPS (3.7 Å)

| stoichiometry N [1] | Binder | stoichiometry N [2] | stoichiometry N [3] |
| --- | --- | --- | --- |
| 1 | B1 | 12 |  |
|  | B2 |  | 2 |
